Legend:
[1] = biological target: T1, TcAK (arginine kinase from Trypanosoma cruzi) (Trypanosoma cruzi, UniProt O96507); experiment: coupled pyruvate kinase / lactate dehydrogenase assay, NADH at […] nm; type: biochemical
T1 sequence (O96507 1-357): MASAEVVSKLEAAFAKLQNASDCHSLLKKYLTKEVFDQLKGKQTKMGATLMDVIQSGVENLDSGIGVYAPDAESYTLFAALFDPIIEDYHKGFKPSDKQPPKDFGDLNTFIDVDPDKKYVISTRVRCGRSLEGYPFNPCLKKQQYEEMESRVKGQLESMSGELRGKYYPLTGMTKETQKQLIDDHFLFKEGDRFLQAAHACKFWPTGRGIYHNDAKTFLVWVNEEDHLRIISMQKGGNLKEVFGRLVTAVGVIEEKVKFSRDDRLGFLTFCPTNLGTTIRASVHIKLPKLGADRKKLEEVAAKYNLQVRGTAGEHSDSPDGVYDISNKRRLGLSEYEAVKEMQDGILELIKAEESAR

purified protein [2] = substrate: Nc1ncnc2c1ncn2[C@@H]1O[C@H](COP(=O)(O)OP(=O)(O)OP(=O)(O)O)[C@@H](O)[C@H]1O; experiment: purified protein; settings: no delphinidin, arginine 10 mM, 1.5 mM MgCl2, Tris-HCl pH 8.2
purified protein [3] = substrate: N=C(N)NCCC[C@H](N)C(=O)O; experiment: purified protein; settings: no delphinidin, ATP 1.5 mM, 1.5 mM MgCl2, Tris-HCl pH 8.2

Molecule | Ki [1] [µM] | Km (purified protein [2]) [µM] | Km (purified protein [3]) [µM]
Oc1cc(O)c2cc(O)c(-c3cc(O)c(O)c(O)c3)[o+]c2c1 [delphinidin] | 1.32 |  | 
TcAK (arginine kinase from Trypanosoma cruzi) (Trypanosoma cruzi) (protein) MASAEVVSKLEAAFAKLQNASDCHSLLKKYLTKEVFDQLKGKQTKMGATLMDVIQSGVENLDSGIGVYAPDAESYTLFAALFDPIIEDYHKGFKPSDKQPPKDFGDLNTFIDVDPDKKYVISTRVRCGRSLEGYPFNPCLKKQQYEEMESRVKGQLESMSGELRGKYYPLTGMTKETQKQLIDDHFLFKEGDRFLQAAHACKFWPTGRGIYHNDAKTFLVWVNEEDHLRIISMQKGGNLKEVFGRLVTAVGVIEEKVKFSRDDRLGFLTFCPTNLGTTIRASVHIKLPKLGADRKKLEEVAAKYNLQVRGTAGEHSDSPDGVYDISNKRRLGLSEYEAVKEMQDGILELIKAEESAR |  | 200 ± 330 | 810 ± 330
